# The RNAGym collection of RNA variant scans (doi:10.1073/pnas.2313332121)
# B1: TPR t1 (parent)
# chain: GACCAAUCUGCCCUCAGAGCUCGAGAACAUCUUCGGAUGCAGAGGAGGCAGGCUUCGGUGGCGCGAUAGCGCCAACGUCCUCAACCUCCAAUGCAUCCCACCACAUGAUGAUGCCUGAAGAGCCUUGGUUUUUUG
# Variants of: B1
# Assay: polymerase ribozyme fitness, log enrichment relative to wild type (log ratio); higher = more active; in vitro selection for triplet polymerase activity
# Summary of the method: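 Fitness measures genotype enrichment against wild-type enrichment on a logarithmic scale, with inverse-variance-weighted averaging of replicates. The logarithm is base 2, and genotypes were kept only with ≥10 input reads and ≥1 read per output in Illumina sequencing. The sequenced libraries came from one triplicate in vitro selection round, including frozen incubation at −7 °C, of PCR-built, transcribed mutant libraries of each subunit of a heterodimeric triplet polymerase ribozyme.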
row,Variant,polymerase ribozyme fitness (log ratio)
1,U59A C102U A103C,-5.53
2,G58U A119G,0.849
3,G57C C85G C114U A119C,-6.42
4,G61A G128U,-2.15
5,G58C C76U C104A G113U A119C,-6.29
6,G60U G93C C104A G113C,-4.47
7,C56U C115U,-0.661
8,G58A C88U C94U G127C G135U,-3.94
9,U59A G61U,-0.465
10,G60C C123A,-0.064
11,G57U A119G,1.22
12,G60A G63A C114U,-4.85
13,U59A G77A A83C U92A C102U U109C C114U,-6.72
14,G58A G61A G120A,0.579
15,G57C G69C U131A,-0.151
16,G60A C64U,-2.43
17,G57A A100U,-1.61
18,G60C G120U,0.528
19,G61A C97U C114U,-2.43
20,G58A G61A C85A G113A,0.19
21,C56U G93A,-0.279
22,C56U G93C,-0.768
23,C56U C123A U126A,0.177
24,G58A G77U U81A U87C C102A,-4.48

row,Variant,polymerase ribozyme fitness (log ratio)
1,G60U G117U,-1.65
2,G57U U116A,-3.39
3,G60A G110C,-3.08
4,G57A C114U,-3.27
5,U59G U92G G110A U133C,-4.4
6,G61A G135A,-1.88
7,G60C C80U,-4.1
8,G57A G61A A90G C124A,0.849
9,G57A C82U A105G G120U,-4.95
10,G60C A111U G128U U133A,-6.08
11,G60U U87A C123G,1.56
12,G58A U78G,0.00664
13,G61A C79A C104A A111U,-5.96
14,G60U A121U,1.63
15,G57A C123U,-0.636
16,C56U G69C C89U C123U,-7.26
17,G60A G122A,-0.483
18,G61A C89G C101G A121G,-0.932
19,G60U U131C,-0.0582
20,U59G U81G U96G,-3.9
21,G60U C80A U106A,-3.14
22,G57A U78C U87C C104U G113A,-1.61
23,G60A C89A U116G,-4.84
24,G60U A83U A108C C114G G117C,-5.39

row,Variant,polymerase ribozyme fitness (log ratio)
1,G60U C82U,-0.383
2,G58C A90U U109A C114U,-5.55
3,U59C A66U,-1.57
4,U59C A66G,-1.47
5,G61A G117U,-2.02
6,U59C C86U,-1.17
7,G60A C64G G69U U132A,-0.296
8,U59A C70U C102A A105U A111G G128A U129A,-5.83
9,G60C U96C C104U G117A,-2.83
10,G57U C82G G110U,-2.25
11,G61A G113A U130G,-1.32
12,G57A G63U,-2.43
13,G60U G93A C98G,-6.44
14,G58A G60C G120C,-3.34
15,G60C C72U,-0.882
16,U59G U92A,-3.4
17,G60A U92A C104U U133A,-2.74
18,C56U G69U A90C C94A C104G G113U G122A,-6.84
19,G58C U96A C97A C104A G120U G128C,-7.29
20,G61A C62U,-1.86
21,G58A C73A A84G A103G C124G,-7.11
22,G57C C79U G110A,-3.76
23,G57C C82G C97U,-1.07
24,G60U A91U A121U,0.38

row,Variant,polymerase ribozyme fitness (log ratio)
1,G60C A90C C97U G117C,-6.07
2,G61A C82U C115A,0.0919
3,U59G C72A,-2.02
4,G60A U116G,-2.22
5,C56U U78G G93U G113A,-2.45
6,G61A C101U,-1.21
7,G57U G110A G127A,-2.29
8,G61A C94U U112A,1.31
9,G60C C114A,-1.83
10,G61A A91C,-0.737
11,G60A A108G G117A,-3.74
12,G60A A118U U126A,-2.3
13,G58U G63A C82A C97U G110A,-4.64
14,G60A A103C A111C,-4.91
15,G58U C98U U125A,-1.35
16,U59C G60C,-0.854
17,G61A C62U C73A,-2.37
18,G57U A105G G113A,-4.1
19,G60A C89U,-0.18
20,C56U U81G C97U,-1.35
21,C56U G69A,-3.53
22,C56U G69C,-4.69
23,C56U G65A A83U,-6.42
24,C56U U125A,-0.748

row,Variant,polymerase ribozyme fitness (log ratio)
1,G60A G93A C99U,-5.15
2,G57U U78A C80U,-0.707
3,G57U A75G A83C G117A,-2
4,G60A G117C A121U,-2.7
5,G57C C89A G117U A118G U130C G135U,-2.49
6,G61A G93A C114G,-2.13
7,G58A U92A,-2.93
8,G60C C114A C115G G122C U133C,-4.6
9,G58C G60C A111U,-3.12
10,U59G G122A,-1.35
11,G57C C62G C104A,-5.81
12,G60U C104U U116A,-2.99
13,G58C A111G,0.509
14,C56U G65C,-5.42
15,G58C U59C A83C U106A,-0.577
16,G57C U59A,-0.128
17,G61A G110U U132A,-0.611
18,C56U G69U C79U G120A U130G,-1.59
19,U59C U78G C104U G117A,-2.35
20,G60A G63U,-3.96
21,G61A C97U,-0.149
22,U59C C114A U130A,-2.23
23,G60C G69A,-4.01
24,G60U A90G C123A U125A G135A,1.61

row,Variant,polymerase ribozyme fitness (log ratio)
1,G58C C73U C86G,-0.297
2,G60C A74C,-4.67
3,G60C A95C,-1.25
4,G60U A119G,-0.151
5,G61A A84C,0.126
6,C56U G69U C82U A84U,-3
7,U59C G117A,-1.62
8,G57A G69A C76G,-3.53
9,U59A C85A C94A G120A,-0.6
10,G58U G71A G77A,0.0877
11,C56U G61A U112G A121U,-6.37
12,G60A A105U,-1.64
13,G60U G93A,-0.449
14,G60U G93C,-0.936
15,C56U G113A,-0.858
16,C56U G57C C70A U92A,-6.45
17,U59C C64U U81A,-1.8
18,G60A C82U,-0.523
19,U59A C72A U109A,-7.12
20,U59G A83C C97U,-0.481
21,U59C C70A,-2.41
22,U59C G107A,-5.95
23,U59G C97U,-1.6
24,G58A G135U,-1.49

row,Variant,polymerase ribozyme fitness (log ratio)
1,G58C A83U C85A U112G U129G,-0.79
2,U59A U87A,-0.298
3,U59A U87G,-0.319
4,G60A C123G,1.63
5,G58C A118G G120C,-0.431
6,U59C C123G,1.95
7,C56U C114U,-1.71
8,G58C C73A C98G,-6.44
9,G60A A84U U87A G113U G122A,-5.92
10,C56U G61U C82A A91G C114U,-6.55
11,G57U C88U A108G,-3.61
12,U59A C101A C114A,-2.95
13,G58C U126C,-1.22
14,G58A G61A G93A G113C U125C G135A,-2.01
15,C56U U92C U106A,-0.561
16,U59G C89A A121G,0.508
17,G57U G60A C114A U129A,-3.12
18,U59A A95U G128A,-2.84
19,U59A C101U C124A,1.59
20,G60U U87A U126C,-0.499
21,G60U C89A A118G,-1.39
22,U59C G110A,-1.31
23,G61A G113U,-2.69
